{"source": "patent US20250320278A1", "about": "(LA JOLLA INSTITUTE FOR IMMUNOLOGY, published 2025)", "key": {"[1]": {"target": "T1, SARS-CoV-2 N protein oligomerization domain (SARS-CoV-2, UniProt P0DTC9 247-364)", "T1 construct": "also called N olig. domain; OD", "assay": "Octet, KD (nM) heat map"}, "[2]": {"target": "T2, SARS-CoV-2 N protein, full-length (SARS-CoV-2, UniProt P0DTC9 1-419)", "T2 construct": "mature; also called SARS-CoV-2 nucleoprotein", "assay": "Octet (BLI) kinetics"}, "[3]": {"target": "SARS-CoV-2 N protein RNA-binding domain (SARS-CoV-2, UniProt P0DTC9 44-180)", "assay": "Octet (BLI) kinetics"}}, "data": [{"binder": "NP3-E2 (antibody, V domains shown) VH: EVQLQQSGPEVVRPGVSVKISCKGSGYTFTDYALHWVKQSHTKSLEWIGVISTYSGTTNYNQNFKGKATMAVDKSSSTAYMELARLTSEDSAIYYCASGGNYGLDYWGQGTSVTVSS VL: DIVMTQSHKFMSTSVGDRVSITCKANQDVGSAVAWYQEKPGQSPKLLIYWTSTRHTGVPDRFTGNGSGTDFTLTISNVQSEDLVDYFCQQYSRYPLTFGSGTKLELK", "values": [{"measurement": "binding result", "setting": "[1]", "result": "no binding"}, {"measurement": "Kd", "setting": "[2]", "result": 0.57, "unit": "nM"}]}, {"binder": "NP3-B1 (antibody, V domains shown) VH: QVQLQQSGPELVKPGTSVTVYCKASGYTFTTYNIYWVKQSHGKSLEWIGYIDPYNGGTSYNQKFKGKATLTVDKSSSAAYMHLNSLTSEDSAVYYCALPWDYWGQGTTVTVSS VL: not shown", "values": [{"measurement": "binding result", "setting": "[1]", "result": "no binding"}, {"measurement": "Kd", "setting": "[2]", "result": 2.01, "unit": "nM"}]}, {"binder": "NP3-D1 (antibody, V domains shown) VH: DVQLQESGPELAKPGASVKVSCKASGYTFTSYNIYWVKQSHGKSLEWIGYIDPYNGGTSYNQKFKGKATLTVDKSSSTAYMHLNSLTSEDSAVYYCALPWDYWGQGTSVTVSS VL: not shown", "values": [{"measurement": "binding result", "setting": "[1]", "result": "no binding"}, {"measurement": "Kd", "setting": "[3]", "result": 0.0015, "unit": "nM"}, {"measurement": "Kd", "setting": "[2]", "result": 5.63, "unit": "nM"}]}, {"binder": "NP3-E4 (antibody, V domains shown) VH: EVQLVESGPGLVAPSQSLSITCTVSGFSLTSYGVSWVRQPPGKGLEWLGVIWGDGSTNYHSALISRLSINKDNSKSQVFLRLNSLQTDDTATYYCAKEDDGYLFYFDYWGQGTTLTVSS VL: DIKMTQSPSSLSASLGDRVTISCSASQDISDYLNWYQQKPDGTVKLLIYYTSSLHSGVPSRFSGSGSGTDYSLTISNLEPEDIATYYCQQYSKLPYTFGGGTKLEIK", "values": [{"measurement": "binding result", "setting": "[1]", "result": "no binding"}, {"measurement": "Kd", "setting": "[3]", "result": 3.46, "unit": "nM"}, {"measurement": "Kd", "setting": "[2]", "result": 0.71, "unit": "nM"}]}, {"binder": "NP3-G5 (antibody, V domains shown) VH: EVQLVESGPELKKPGEPVRISCKASGYTFTDYGMNWVKQAPGKGLKWMGWINTYTGEPTYADDFKGRFAFSLETSASTAFLQITNLKNEDTATYFCARAPLLRSYFDYWGQGTSVTVSS VL: DIVMTQSHKFMSTSVGDRISITCKASQDVSTAVVWYQQKPGQSLKLLIYSASYRYTGVPDRFTGSGSGTDFTFTISSVQAEDLAIYYCQQYYSTPFTFGSGTKLEIK", "values": [{"measurement": "binding result", "setting": "[1]", "result": "no binding"}]}, {"binder": "NP3-D5 (antibody, V domains shown) VH: DVQLQESGPELVRPGVSVKISCKGSGYTFTDYVMHWVKQSHAKSLEWIGVISTYSGNTNYNQKFKGKATMTVDKFSNTAYMELARLTSEDSAIYYCTRGTGDFDYWGQGTTLTVSS VL: DIVMTQSHKFMSTSVGDRVSITCKASQDVGTAVAWYQQKPGQSPKLLIYWASTRHTGVPDRFTGSGSGTDFTLTISNVQSEDLADYFCHQYSSYPYTFGGGTKLEIK", "values": [{"measurement": "binding result", "setting": "[1]", "result": "no binding"}]}, {"binder": "NP3-E11 (antibody, V domains shown) VH: EVQLQQSGPELVRPGVSVKISCKGSGYTFTDYVMHWVKQSHAKSLEWIGVISTYSGNTNYNQKFKGKATMTVDKSSNTVYMELARLTSEDSAIYYCTRGTGDFDYWGQGTTLTVSS VL: DIVMTQSHKFMSTSVGDRVSITCKASQDVGSAVAWYQQKPGQSPKLLIYWTSTRHTGVPDHFTGSGSGTDFTLTINNVQSEDLADYFCHQYSSYPYTFGGGTKLEIK", "values": [{"measurement": "binding result", "setting": "[1]", "result": "no binding"}, {"measurement": "Kd", "setting": "[3]", "result": 0.57, "unit": "nM"}, {"measurement": "Kd", "setting": "[2]", "result": 1.23, "unit": "nM"}]}, {"binder": "NP3-A11 (antibody, V domains shown) VH: EVQLQESGPELKKPGETVKISCKVSGYTFTNYGMNWVKQAPGKGLKWMGWINTYTGEPKYGDDFKGRFALSLETSAGTAYLRINNLKNEDTATYFCARSHGNYENHFDYWGQGTTLTVSS VL: DIQMTQSPSSLSVSVGETVTITCRASENIYSSLAWYQQKQGKSPQLLVYTATDLADGVPSRFSGSGSGSQYSLRINSLQSEDFGSYYCQHFWGFPWTFGGGTKLEIK", "values": [{"measurement": "binding result", "setting": "[1]", "result": "no binding"}, {"measurement": "Kd", "setting": "[3]", "result": 1.01, "unit": "nM"}, {"measurement": "Kd", "setting": "[2]", "result": 0.71, "unit": "nM"}]}, {"binder": "NP3-E3 (antibody, V domains shown) VH: QIQLVQSGPDLKKPGETVKISCKASGYTFTDYSMHWVKQVPGKGLKWMGWINTETDKPTYADDFKGRFAFSLETSASTAYSQINNLKNEDTATYFCARHYKYDEAWSPYWGQGTLVTVSA VL: DIVLTQSPASLSVSVGETVTITCRASENIYSNLAWYQQKQGQSPQLLVYAATDLADGVPSRFSGSGSGTQYSLKINSLQSEDFGNYYCQHFWGTPWTFGGGTKLEIK", "values": [{"measurement": "binding result", "setting": "[1]", "result": "no binding"}, {"measurement": "Kd", "setting": "[3]", "result": 1.36, "unit": "nM"}]}, {"binder": "NP3-B9 (antibody, V domains shown) VH: EVQLQQSGPELKKPGETVKISCKTSGYTFTNCGMHWVKQAPGKGLKWMGWINTYTGEPTYADDFKGRFAFSLETSVNTAYLQINNLKSEDTASYFCARRDDVYYVAGFDYWGQGTTLTVSS VL: DIQMTQSPASLSVSVGETVTITCRASENIYSNLAWYQQKQGKSPQLLVNGATDLADGVPSRFSGSGSGTQYSLKINSLQSEDFGSYYCQLFWGTPWTFGGGTKLEIK", "values": [{"measurement": "binding result", "setting": "[1]", "result": "no binding"}, {"measurement": "Kd", "setting": "[3]", "result": 0.47, "unit": "nM"}, {"measurement": "Kd", "setting": "[2]", "result": 0.38, "unit": "nM"}]}, {"binder": "NP3-C5 (antibody, V domains shown) VH: QIQLVQSGPELKTPGETVKISCKASGYTFTNCGMHWVKQAPGKGLKWMGWINTYTGEPIYADDFKRRFAFSLETSASTAYLQINNLNNEDTASYFCARRDDVYYVAGFDYWGQGTTVTVFS VL: DIQMTQSPASLSVSVGETVTITCRASENIYSNLAWYQQKQGKSPQLLVYGATDLADGVPSRFSGSGSGTQYSLKINSLQSEDFGSYYCQHFWGTPWTFGGGTKLELK", "values": [{"measurement": "binding result", "setting": "[1]", "result": "no binding"}, {"measurement": "Kd", "setting": "[3]", "result": 0.62, "unit": "nM"}, {"measurement": "Kd", "setting": "[2]", "result": 0.73, "unit": "nM"}]}, {"binder": "NP3-F4 (antibody, V domains shown) VH: EVQLVESGPELKKPGETVKIPCKTSGYTFTNYGMNWVKQAPGKGLKWMGWINTNTGEPTYAEDFKGRFAFSLETSASTAYLQISNLKNEDTATFFCARGSIYDGYYEGLYYWGQGTTLTVSS VL: DIKMTQSPSSLSVSVGETVTITCRASENIYSNLAWYQQKQGKSPQLLVSAATNLADNVPSRFSGSGSGTQYSLKINSLQSEDFGSYYCQHFWGFPRTFGGGTKLEIK", "values": [{"measurement": "binding result", "setting": "[1]", "result": "no binding"}, {"measurement": "Kd", "setting": "[3]", "result": 5.57, "unit": "nM"}, {"measurement": "Kd", "setting": "[2]", "result": 2.84, "unit": "nM"}]}, {"binder": "NP3-B2 (antibody, V domains shown) VH: QIQLVQSGGGLVKPGGSLKLSCAASGFTFSDYYMSWVRQTPEKRLEWVATISDGGSYTYYPDSVKGRFTISRDNAKNNLYLHMSSLKSEDTAMYYCARGSTYGNPLDYWGQGTTLTVSS VL: DIQMTQTTSSLSASLGDRVTINCSASQGISNYLNWYQQKPDGTVKLLIYFTSSLHSGFPSRFSGSGSGTDFSLTISNLEPEDIATYYCQQYSKLPFTFGSGTKLEIK", "values": [{"measurement": "binding result", "setting": "[1]", "result": "no binding"}, {"measurement": "Kd", "setting": "[3]", "result": 0.9, "unit": "nM"}, {"measurement": "Kd", "setting": "[2]", "result": 1.51, "unit": "nM"}]}, {"binder": "NP3-G6 (antibody, V domains shown) VH: EVQLVESGGGLVKPGGSLKLSCAASGFTFSDYYMSWVRQTPEKRLEWVATISDGGSYTYYPDSVKGRFTISRDNAKNNLYLHMSSLKSEDTAMYYCARGSTYGNPLDYWGQGTSVTVSS VL: DIQMTQSPASLSASLGDRVTINCSASQGISNYLNWYQQKPDGTVKLLIYFTSSLHSGFPSRFSGSGSGTDFSLTISNLEPEDIATYYCQQYSKLPFTFGSGTKLEIK", "values": [{"measurement": "binding result", "setting": "[1]", "result": "no binding"}, {"measurement": "Kd", "setting": "[3]", "result": 0.88, "unit": "nM"}, {"measurement": "Kd", "setting": "[2]", "result": 0.43, "unit": "nM"}]}, {"binder": "NP3-E5 (antibody, V domains shown) VH: EVQLVESGGGLVKPGGSLKLSCAASGFTFSDYYMSWVRQTPEKRLEWVATISDGGNYTYYPDSVKGRFTISRDNAKNNLYLQMSSLKSEDTAMYYCARGSTYGNPLDHWGQGTTLTVSS VL: DIQMTQTTSSLSASLGDRVTINCSASQGISNYLNWYQQKPDGTVKLLIYYTSILHSGVPSRFSGSGSGTDYSLTISNLEPEDIATYYCQQYSKLPFTFGSGTKLEIK", "values": [{"measurement": "binding result", "setting": "[1]", "result": "no binding"}, {"measurement": "Kd", "setting": "[3]", "result": 1.38, "unit": "nM"}, {"measurement": "Kd", "setting": "[2]", "result": 0.8, "unit": "nM"}]}]}
